Test results from article PMC5887453 (Nucleic Acids Research, 2018).
Substitutions are numbered along the chain they refer to.

Columns and labels:
Test in all cases: native gel or EMSA
PhoEF-2 N227S = biological target: T1, PhoEF-2 N227S (Pyrococcus horikoshii, UniProt O59521 1-732, N227S)
T1 sequence (looked up): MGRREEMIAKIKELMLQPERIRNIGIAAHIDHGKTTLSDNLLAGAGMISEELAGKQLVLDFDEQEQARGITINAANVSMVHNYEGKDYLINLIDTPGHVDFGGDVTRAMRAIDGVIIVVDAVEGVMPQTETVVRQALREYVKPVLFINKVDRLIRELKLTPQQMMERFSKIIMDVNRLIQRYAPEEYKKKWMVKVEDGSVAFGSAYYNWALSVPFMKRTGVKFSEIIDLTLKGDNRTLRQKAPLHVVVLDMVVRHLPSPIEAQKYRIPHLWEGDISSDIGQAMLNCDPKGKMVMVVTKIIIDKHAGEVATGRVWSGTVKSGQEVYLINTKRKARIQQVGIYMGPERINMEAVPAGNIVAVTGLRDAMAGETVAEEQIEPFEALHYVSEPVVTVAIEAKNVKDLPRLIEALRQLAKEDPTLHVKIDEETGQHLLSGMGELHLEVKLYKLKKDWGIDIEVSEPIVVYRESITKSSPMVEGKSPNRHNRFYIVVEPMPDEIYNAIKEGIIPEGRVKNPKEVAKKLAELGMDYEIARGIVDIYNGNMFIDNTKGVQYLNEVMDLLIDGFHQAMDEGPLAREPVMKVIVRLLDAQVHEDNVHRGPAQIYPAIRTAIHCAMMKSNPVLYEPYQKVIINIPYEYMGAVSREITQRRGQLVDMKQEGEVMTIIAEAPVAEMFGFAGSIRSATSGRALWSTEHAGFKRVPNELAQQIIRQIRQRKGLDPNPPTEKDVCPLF

PhoEF-2 M219S = biological target: T2, PhoEF-2 M219S (Pyrococcus horikoshii, UniProt O59521 1-732, M219S)
T2 sequence (looked up): T1 sequence (looked up) with M216S, S224N

PhoEF-2 P164S = biological target: T3, PhoEF-2 P164S (Pyrococcus horikoshii, UniProt O59521 1-732, P164S)
T3 sequence (looked up): T1 sequence (looked up) with P161S, S224N

binding result (PhoEF-2 N227S): binds
binding result (PhoEF-2 M219S): binds
binding result (PhoEF-2 P164S): binds
B1: Pyrococcus horikoshii ribosomal stalk protein P1 (natural protein, UniProt O57705 1-108, looked up)
chain: MEYVYAALLLHSVGKEINEENLKAVLQAAGVEPEEARIKALVAALEGVNIDEVIEKAAMPVAVAAAPAAAPAEAGGEEKKEEEKKEEEEKEEEVSEEEALAGLSALFG
modifications: in the SPR only: biotin on amino groups via a PEG linker (EZ-Link NHS-PEG4-Biotin)
